This note sets out measurements from article PMC3791464 (eLife, 2013).

For assay [1], the target named is Drosophila ORC1–5 (ORC lacking Orc6), purified, 6×His-Orc1 and MBP–Orc4 (Drosophila melanogaster) (UniProt O16810). Kind of assay: fluorescence polarisation; fluorescence anisotropy, apparent Kd; 30 nM Orc6 N-terminally labelled with Alexa Fluor 488, ORC1–5 in twofold dilutions from 1 µM to 122 pM; 50 mM Tris HCl pH 7.8, 300 mM KCl, 5% glycerol, 1 mM DTT, 0.1 mg/ml BSA; 1 hr on ice; single-site fit with ligand depletion.

Assay [2] concerns the target T1, Drosophila ORC1–5 (ORC lacking Orc6), purified, 6×His-Orc1 and MBP–Orc4 (Drosophila melanogaster, UniProt O16810 1-924; Q24168 1-618; Q7K2L1 1-721; Q9W102 1-459; Q24169 1-460).
T1 construct: Drosophila Orc1; Drosophila Orc2, untagged; Drosophila Orc3, untagged; Drosophila Orc4; Drosophila Orc5, untagged; source: High5 cells co-infected with five baculoviruses, purified (Ni, amylose, gel filtration; TEV step omitted); not shown: 6×His, N-terminal, kept; MBP, N-terminal, kept; copies: + + + +
The description is as above. The settings on record: both partners purified.

Assay [3] concerns the target T2, Drosophila ORC1–5 in MBP-tagged ORC for EM (6×His-Orc1, other subunits untagged) (Drosophila melanogaster, UniProt O16810 1-924; Q24168 1-618; Q7K2L1 1-721; Q9W102 1-459; Q24169 1-460).
T2 construct: Drosophila Orc1; Drosophila Orc2, untagged; Drosophila Orc3, untagged; Drosophila Orc4, untagged; Drosophila Orc5, untagged; source: High5 cells co-infected, co-purified with MBP–Orc6 187–257 (Ni, amylose, gel filtration; TEV step omitted); not shown: 6×His, N-terminal, kept; copies: + + + +
Put plainly: co-purification over several chromatography steps; MBP–Orc6 187–257 co-expressed with 6×His-Orc1 and untagged Orc2–Orc5 in High5 cells; Ni affinity, amylose affinity and gel filtration, TEV step omitted. The settings on record: partners not purified. For orientation: SEC sorts molecules by how far they enter the pores of the column.

For assay [4], the target named is T3, Drosophila Orc1 in untagged recombinant ORC (Drosophila melanogaster, UniProt O16810 1-924).
T3 construct: Drosophila Orc1; source: High5 cells co-infected with six baculoviruses, co-purified (Ni, amylose, TEV, gel filtration); not shown: 6×His, N-terminal, cleaved
T3 sequence (looked up): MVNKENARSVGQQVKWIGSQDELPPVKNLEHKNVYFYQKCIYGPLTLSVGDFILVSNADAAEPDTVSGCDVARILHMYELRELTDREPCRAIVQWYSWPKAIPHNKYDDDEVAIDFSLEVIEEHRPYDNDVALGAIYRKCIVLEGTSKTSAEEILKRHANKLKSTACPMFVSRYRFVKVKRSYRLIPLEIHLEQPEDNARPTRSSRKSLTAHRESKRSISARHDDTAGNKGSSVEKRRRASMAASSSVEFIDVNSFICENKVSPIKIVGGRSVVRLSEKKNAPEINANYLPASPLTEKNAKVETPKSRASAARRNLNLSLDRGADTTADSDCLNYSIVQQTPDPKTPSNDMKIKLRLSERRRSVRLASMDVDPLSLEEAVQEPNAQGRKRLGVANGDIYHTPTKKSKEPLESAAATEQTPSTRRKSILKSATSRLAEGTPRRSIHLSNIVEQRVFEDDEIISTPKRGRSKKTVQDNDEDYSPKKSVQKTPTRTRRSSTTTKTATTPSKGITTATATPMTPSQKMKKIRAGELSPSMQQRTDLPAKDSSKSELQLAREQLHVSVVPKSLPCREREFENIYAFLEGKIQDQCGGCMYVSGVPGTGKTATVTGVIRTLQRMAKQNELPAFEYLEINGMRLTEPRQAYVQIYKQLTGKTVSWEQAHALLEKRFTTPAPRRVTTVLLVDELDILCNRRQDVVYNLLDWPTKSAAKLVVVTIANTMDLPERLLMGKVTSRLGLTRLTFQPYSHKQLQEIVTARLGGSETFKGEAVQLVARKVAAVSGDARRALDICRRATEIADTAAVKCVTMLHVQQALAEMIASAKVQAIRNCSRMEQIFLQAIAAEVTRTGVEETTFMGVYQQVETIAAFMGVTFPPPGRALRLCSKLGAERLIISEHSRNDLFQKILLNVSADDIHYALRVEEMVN
Kind of assay: SEC; analytical gel filtration of purified, co-expressed untagged Drosophila ORC on a Superose 6 column; elutes as a hexamer of ~390 kDa. The following applies: both partners purified.

In the case of “Drosophila Orc6-Y225S, N-terminal 6×His (from UniProt Q9Y1B2 1-257) (natural protein)”, in assay [1], the fold reduction of affinity against wild type Orc6 is > 100 fold.

B1: Drosophila Orc6 C-terminal domain (187–257), N-terminal 6×His (domain or fragment, Drosophila melanogaster, UniProt Q9Y1B2 187-257, looked up)
chain: KESKVPSSTDMEGKLKENQNENIKGHEAKKAHKPPPEDYEIWKARMLAKAQAKLKELEASQSHMDSQLLEA
modifications: Alexa Fluor 488 on the N-terminus (only in the fluorescence anisotropy assay)
notes: Drosophila Orc6, residues 187-257 (C-terminal domain); not detected in Western blots of whole-cell extract, but seen in the pull-downs; also called Orc6 187–257; Orc6 CTD; source: High5 cells (baculovirus): in lysate of co-infected cells; also purified (HisTrap, gel filtration); not shown: 6×His, N-terminal, kept
In the case of B1, the Kd in assay [2] was found to be 4.8 ± 0.6 nM.

B2: Drosophila MBP–Orc6 187–257 (domain or fragment, Drosophila melanogaster, UniProt Q9Y1B2 187-257, looked up)
chain: B1 chain
notes: Drosophila Orc6, residues 187-257; also called N-terminally MBP-tagged C-terminal domain of Orc6 (amino acids 187–257); MBP-fusion of the C-terminal domain of Orc6; source: High5 cells co-infected with the ORC1–5 subunits, co-purified (Ni, amylose, gel filtration); not shown: MBP, N-terminal, kept
On to B2, for which the binding result in assay [3] is on record as “binds”.

B3: Drosophila Orc4 in untagged recombinant ORC (natural protein, Drosophila melanogaster, UniProt Q9W102 1-459, looked up)
chain: MPEADRELVSIRRFLKERLQRDYTTLRGYAKERSNVRLLLQRTAEMGESNSLLLLGPRGSGKTTLINSVLADLLPNKSFGENTLIVHLDGNLHTDDRVALKSITVQMQLENAADGKVFGSFAENLAFLLQCLKAGGKHSKSVIFILEEFDLFCAHHNQTLLYNLFDVSQSAQAPICVLGVTCRLDVIELLEKRVKSRFSHRQVFLFPSLRRFEDYVDLCRDLLSLPTGNSLLLAAEKIYNLQNIQSGALYFSRNHFDPGEYGFSPRLRDAWNKQICKVLATQQARSTLQALHDFDISEAYLKNFLFRLVAHLRPQSPHITAEKMAAVGSQFEGDDKIELLCGLSVLELCLIIAIKHHSQIYDRDSFNFEIIYARFSKFAKVSTTMQAVERSIVLKAFEHLRIAELIMPLTGGAGGGVGKVQKEFEMHKLALTYSQIHHCMQRYQALPTEVAQWAQSSLI
notes: Drosophila Orc4; source: High5 cells co-infected with six baculoviruses, co-purified (Ni, amylose, TEV, gel filtration); not shown: MBP, N-terminal, cleaved
Regarding B3, in assay [4], the binding result is listed as “binds”.

B4: Drosophila Orc6, full-length (1–257), N-terminal 6×His (natural protein, Drosophila melanogaster, UniProt Q9Y1B2 1-257, looked up)
chain: MTTLIEQLITKMGLREEPNVLEKTTELVRLLELRSTNVPLQINEYGKIVLCADLASCMIGIAFDKEQALKLSGLRKSQYLNNKRMFEKLLDLNKLASVNDICVQLGLNEVARKAEELMTLFKGVAATEDMGTDTSHPQYATMAVFQACRLLKKKVSKSKLMPFSNLRPSQFQLLEQQWERMIAKHHKESKVPSSTDMEGKLKENQNENIKGHEAKKAHKPPPEDYEIWKARMLAKAQAKLKELEASQSHMDSQLLEA
modifications: Alexa Fluor 488 on the N-terminus (only in the fluorescence anisotropy assay)
notes: Drosophila Orc6, residues 1-257; also called wild-type Orc6; Orc6 WT; source: High5 cells (baculovirus): in lysate of co-infected cells; also purified (HisTrap, gel filtration); not shown: 6×His, N-terminal, kept
Turning to B4, the Kd in assay [2] is 5 ± 0.7 nM.

B5: Drosophila Orc6 in untagged recombinant ORC (natural protein, Drosophila melanogaster, UniProt Q9Y1B2 1-257, looked up)
chain: B4 chain
notes: Drosophila Orc6, no purification tag; source: High5 cells co-infected with six baculoviruses, co-purified (Ni, amylose, TEV, gel filtration)
Consider B5, for which, in assay [4], the binding result was “binds”.

B6: Drosophila Orc2 in untagged recombinant ORC (natural protein, Drosophila melanogaster, UniProt Q24168 1-618, looked up)
chain: MSASNKGGYKTPRKENLMSIENLTNSEEESEDLNTAMVGNAVESQPKVTSRRSTRRPSPTKKYQAYQKESNGKGQEERIVVNYVEMSDERSSDAEDQEEEESIEESENAARPAAKDLHLIQSEYNVAGTSMFGFNTPKKRDAMALAALNATPCTPKTPKTPRLGVKTPDTKRKKSMDQPKTPAHVRTRVKKQIAKIVADSDEDFSGDESDFRPSDEESSSSSSSSDAGNSSDNDAADDEPKTPSRARRAIVVPVLPKTPSAARLRQSARAKKSNEFVPESDGYFHSHASSKILTSDHTLDRLKNPRLAADRVFSLLSEIKTSAEHEGSINAIMEEYRSYFPKWMCILNEGFNILLYGLGSKHQLLQSFHREVLHKQTVLVVNGFFPSLTIKDMLDSITSDILDAGISPANPHEAVDMIEEEFALIPETHLFLIVHNLDGAMLRNVKAQAILSRLARIPNIHLLASIDHINTPLLWDQGKLCSFNFSWWDCTTMLPYTNETAFENSLLVQNSGELALSSMRSVFSSLTTNSRGIYMLIVKYQLKNKGNATYQGMPFRDLYSSCREAFLVSSDLALRAQLTEFLDHKLVKSKRSVDGSEQLTIPIDGALLQQFLEEQEKK
notes: Drosophila Orc2, no purification tag; source: High5 cells co-infected with six baculoviruses, co-purified (Ni, amylose, TEV, gel filtration)
Consider B6, for which the binding result in assay [4] is “binds”.

B7: Drosophila Orc5 in untagged recombinant ORC (natural protein, Drosophila melanogaster, UniProt Q24169 1-460, looked up)
chain: MEAICSSLEPLFPCREAAIETLGELIGDSSETYPSAIYLFGHSGTGKTALTRAFLKECGKRQNVRTAHLNAIECYTTKIMLEILLDSLAPDQGDALKVDNMLDFVEQLRRQAATRVEDQGFLIAVDNAERLRDMDANVLPVLLRLQELTNLNLCVILLSQLPFEKFYNKTGLSEIVCLHLAQYNKAETQRILGSDFQQVRNQLLEQFAQDKKRLEICQEAVTEDFYNNYLNLFLSVFYKACRDVPELQLTARKCLSTYLEPVLDGTVDATDISRLWRHIAGPLRSALTQIYMRIEKPAEEVEDFTAIEDQSVRKLAQSLELPYYAKFLLIAAFLASHNAAKQDKRLFVKHHGKQRKRMQTVNARAKTTEKMSTTLGPKSFSIDRLLAIFYAILEEKVGLTCNLLSQISTLVHLNLLSFVSGEQNIMEGSARLQCTIGLEFVLQIGKVVGFNVRQYLCDFM
notes: Drosophila Orc5; the methods list Orc4 twice and leave Orc5 out of the untagged subunits; source: High5 cells co-infected with six baculoviruses, co-purified (Ni, amylose, TEV, gel filtration)
On to B7, for which the binding result in assay [4] was “binds”.

B8: Drosophila Orc3 in untagged recombinant ORC (natural protein, Drosophila melanogaster, UniProt Q7K2L1 1-721, looked up)
chain: MDPTISVSKGCFVYKNGATRAGKKAASKRKRPAAESSSLLGKEVVQQPFYEEYRKAWNQINDHIADLQHRSYARTLEQLVDFVVGQAERDTPDEVLPTAALLTGINQPDHLSQFTALTQRLHAQRAAMVCVLQSRDCATLKAAVETLVFGLVEDNAEVEQMEDEDEDEDGAERDRKRLRRSQCTMKQLKSWYTNNFDSEQKRRQLVVILPDFECFNASVLQDLILILSAHCGSLPFVLVLGVATAMTAVHGTLPYHVSSKIRLRVFQTQAAPTGLNEVLDKVLLSPKYAFHLSGKTFKFLTHIFLYYDFSIHGFIQGFKYCLMEHFFGGNAFALCTDYSKALGRIKQLTHEDMETIRRLPSFRPYVEQINDCKRIIAVLTDDDYLKKKLPQLLRDCLLHFLLFRCSLEFLTELVGDLPRCPLGKLRRELYVNCLNRAIISTPEYKECLQMLSFLSKDEFVAKVNRALERTEQFLVEEIAPLELGEACTAVLRPKLEAIRLAVDEVVKATMATITTTSPNETRQATDHLTPVASRQELKDQLLQRSKEDKMRHQLNTPTTQFGRALQKTLQLIETQIVQDHLRALQDAPPIHELFVFSDIATVRRNIIGAPRAALHTALNNPHFYMQCKCCELQDQSLLVGTLPDLSVVYKLHLECGRMINLFDWLQAFRSVVSDSDHEEVAQEQIDPQIQARFTRAVAELQFLGYIKMSKRKTDHATRLTW
notes: Drosophila Orc3, no purification tag; source: High5 cells co-infected with six baculoviruses, co-purified (Ni, amylose, TEV, gel filtration)
B8: in assay [4], the binding result is on record as “binds”.
